Experimental data as given in paper PMC10278067.

Columns and labels:
Experiment in all cases: SPR; Biacore 8K; original LD3 and mutants immobilised on CM5 chip by amine coupling (500-1000 RU); Bcl-2 injected as analyte in serial 2-fold dilutions (from 2000 or 500 nM); HBS-EP+ pH 7.4, 150 mM NaCl; 1:1 Langmuir fit; three independent experiments
LD3_v1 (L133A) = biological target: LD3_v1 (L133A)
LD3_v2 (I136A) = biological target: LD3_v2 (I136A)
LD3_v4 (F140A) = biological target: LD3_v4 (F140A)
LD3_v5 (K144A) = biological target: LD3_v5 (K144A)
LD3_v5 (K144A), sequence (P02649 other isoform, or with tags, fused parts or gaps K144A): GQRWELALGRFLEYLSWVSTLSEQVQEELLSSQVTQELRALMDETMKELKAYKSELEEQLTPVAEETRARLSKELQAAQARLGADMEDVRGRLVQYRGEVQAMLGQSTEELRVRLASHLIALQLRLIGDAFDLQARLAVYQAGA

LD3_v3 (D138A) = biological target: LD3_v3 (D138A)
LD3_v3 (D138A), sequence (P02649 other isoform, or with tags, fused parts or gaps D138A): as the sequence (P02649 other isoform, or with tags, fused parts or gaps K144A) above, with D129A, A135K counted along it

LD3_v4 (F140A), sequence (P02649 other isoform, or with tags, fused parts or gaps F140A): as the sequence (P02649 other isoform, or with tags, fused parts or gaps K144A) above, with F131A, A135K counted along it
LD3_v1 (L133A), sequence (P02649 other isoform, or with tags, fused parts or gaps L133A): as the sequence (P02649 other isoform, or with tags, fused parts or gaps K144A) above, with L124A, A135K counted along it
LD3_v2 (I136A), sequence (P02649 other isoform, or with tags, fused parts or gaps I136A): as the sequence (P02649 other isoform, or with tags, fused parts or gaps K144A) above, with I127A, A135K counted along it

“B-cell lymphoma 2 (Bcl-2) protein (from UniProt P10415 1-239) (natural protein)” was tested, and the Kd (LD3_v1 (L133A)) was 65.8 nM, the koff (LD3_v1 (L133A)) was 0.00263 s⁻¹ and the kon (LD3_v1 (L133A)) was 40800 M⁻¹ s⁻¹. It also gave a Kd (LD3_v2 (I136A)) of 0.74 nM, a koff (LD3_v2 (I136A)) of 8.9e-05 s⁻¹ and a kon (LD3_v2 (I136A)) of 360000 M⁻¹ s⁻¹. The Kd (LD3_v4 (F140A)) was 27.3 nM, the koff (LD3_v4 (F140A)) was 0.00197 s⁻¹ and the kon (LD3_v4 (F140A)) was 240000 M⁻¹ s⁻¹. The Kd (LD3_v5 (K144A)) was 0.46 nM, the koff (LD3_v5 (K144A)) was 6.6e-05 s⁻¹ and the kon (LD3_v5 (K144A)) was 455000 M⁻¹ s⁻¹. For the same substance, the Kd (LD3_v3 (D138A)) was 358 nM, the koff (LD3_v3 (D138A)) was 0.0184 s⁻¹ and the kon (LD3_v3 (D138A)) was 154000 M⁻¹ s⁻¹.
